In the DeepSol protein solubility set:

Assay: soluble on expression in E. coli; label from the status in PepcDB or PDB records

Soluble on expression in E. coli, not soluble:
MPMDSYEKRGYLDREFRLFHLSACLPGDISYHYHDFDKILIFLRGDVDYVIEGRSYHLNPYDIVLVGHHSIHKPLLRSGDVYERIVVYLSPGYVDSFRTENCDLSRCFKDAREHCSDVLRISSLKISSLYESLIRLEKACREDGYAKELYCRILFLEFMIHLNRAASGSHLEYVSTSPSSEKVLEIMRYISENPSADFTIDSLASRFFLSKFHMMRLFKQETGYTINSYINEKRLLMAKELLGRNLPVTEVCFRCGFRNYAAFLRAYKKNFGENPKSGKRPEGRTSVDNLHAPRTEHRLQKKPLSK
MGLSVMIMLMRSVKIKYLNLASLSNDRSADTSAAPHSPLRTRLVHPSLAFCPDVPSGKCRFAKFYGIGREPHRIRGADVLLFEGLKRVR
MGSDKIHHHHHHMQSGYYSSTGGIVTQFHRLDMISNNLANANTTGFKRDDVVIGDFLRLYEQQKEPLPLEDQTREAAKFLNRAMDRVPSIVEEYTDRSIGGITPSENRFDFALQSENAYFMIETPEGIRYTRDGSFTLNSEGRLVTKEGFAVLPREFVQSRQYIDIPDGVVIEADRNGNLYSRTLNNDELGDIIPLGNIAIASFENPKYLEKTGKNLYEYPQERMGERNLATNSGALVQGYLEKSNVNAVWEMTGLIETNRLVDMYSKVMKTHMDDLNTEAITKLAVKA
SSDSFDRAPEQTKPQRAPPSSQDKIPQQNSESAMAKPQVVVAPVLMSKLSANAPEFYPSGYSSNYTESYEDGCEDYPTLSEYVQDFLNHLTEQPGSFETEIEQFAETLNGWVTTDDALQELVELIYQQATSIPNFSYMGARLCNYLSHHLTISPQSGNFRQLLLQRCRTEYEAKDQAAKGDEVTRKRFHAFVLFLGELYLNLEIKGTNGQVTRADILQVGLRELLNALFSNPMDDNLICAVKLLKLTGSVLEDTWKEKGKTDMEEIIQRIENVVLDANCSRDVKQMLLKLVELRSSNWGRVHATSTYREATPENDPNYFMNEPTFYTSDGVPFTAADPDYQEKYQELLEREDFFPDYEENGTDLSGAGDPYLDDIDDEMDPEIEEAYEKFCLESERKRKQ
MAHHHHHHMRKKGSGFIGGKLNLKIKKKKKNAKQEARHGEASHVDSVAKSGEAVQVKSDPSEHDGKKDGSEKIIKGTGRITTEKNTVRGVRTDFMAEIKEGYDIILENPSTFRNERRTVTSVLSNKTLLVHEEFTTDISTTCAFYIASGGKSGGKPVGQPADTPEAHIGVEYAKVFEQTSRQDQVEVREKTGLWSYRVVKKKVDGRLTNEEKLDMRVRSGRDKFCW

Soluble on expression in E. coli, soluble:
MESNNNEKKKVARQSSSFRLRSPSLNALRLQRIFDLFDKNGDGFITVEELSQALTRLGLNADLSDLKSTVESYIQPGNTGLNFDDFSSLHKTLDDSFFGGACGGGENEDDPSSAAENESDLAEAFKVFDENGDGFISARELQTVLKKLGLPEGGEMERVEKMIVSVDRNQDGRVDFFEFKNMMRTVVIPSS
MAAAREPELPQEAPATEPAPPPACRFFLEGRCRFGARCRQPHPGAPAPPGREAQPEAGAKKPPLRTAADVIQRIRWDPRLDPADFSVGYVDRFLGVREEPFSAFCWDQPLAALGPGVLAVPQHRVRFFRFHGRLVWDRASRTDLVFGSGSAAGRGPTILDAPNTEGAHGAEGAEWTLAGTGQEAQAAPKRGSTRPLCTGHQEPGVEEPGELEAAQERALGTAADLGTLAPRGRLAGVTEEALKPTAATRTTLLGGKEAQALGVPGGSAETTEAEWGPAAWPEDKRARLSVAAPCQPRPTHFVALMVTEPGLQAEVTKAQEYLVHVAPHCANFLVPSQNLHLTLALLRLAGAGEEAAAIGALRRALLAPGLNAPPRLSFRKLVLLGPHVLCAPPSPTLESMAQVLSQRLEAEGLSTLQSPGQLHPHLTVAKVPHGSQVHLPKLEFTLSQEVGCQPLQTLWLCRIGRTGGPFQPLAEIRLE
MGNSYITKEDNQISATSEQTEDSACLSAMVLTTNLVYPAVLNAAIDLNLFEIIAKATPPGAFMSPSEIASKLPASTQHSDLPNRLDRMLRLLASYSVLTSTTRTIEDGGAERVYGLSMVGKYLVPDESRGYLASFTTFLCYPALLQVWMNFKEAVVDEDIDLFKNVHGVTKYEFMGKDKKMNQIFNKSMVDVCATEMKRMLEIYTGFEGISTLVDVGGGSGRNLELIISKYPLIKGINFDLPQVIENAPPLSGIEHVGGDMFASVPQGDAMILKAVCHNWSDEKCIEFLSNCHKALSPNGKVIIVEFILPEEPNTSEESKLVSTLDNLMFITVGGRERTEKQYEKLSKLSGFSKFQVACRAFNSLGVMEFYK
